# Laboratory results taken from the Immune Epitope Database (IEDB).
# How the values were obtained:
# HLA-A*11:01 [1] = assay: IEDB peptide-MHC binding, purified MHC/direct/fluorescence; filed as Kd, often an IC50 or EC50 that approximates it; ≥ and ≤ were set here for values at or beyond the usual limits of such assays; settings: source organism: Camelpox virus M-96
# HLA-B*57:01 = assay: as above
# HLA-B*48:01 [2] = assay: as above
# HLA-B*07:02 = assay: as above
# HLA-A*03:01 = assay: as above; settings: source organism: Camelpox virus M-96
# HLA-B*58:01 = assay: as above
# HLA-A*69:01 = assay: as above
# HLA-B*40:01 = assay: as above
# HLA-B*46:01 = assay: as above
# HLA-A*31:01 [3] = assay: as above; settings: source organism: Camelpox virus M-96
# HLA-A*01:01 [4] = assay: as above
# HLA-A*68:02 [5] = assay: IEDB peptide-MHC binding, purified MHC/competitive/fluorescence; filed as Kd, often an IC50 or EC50 that approximates it; ≥ and ≤ were set here for values at or beyond the usual limits of such assays
# HLA-A*26:02 [6] = assay: as above; settings: source organism: Vaccinia virus Copenhagen
# HLA-B*15:17 [7] = assay: as above; settings: source organism: Vaccinia virus Copenhagen
# HLA-A*02:06 = assay: as above; settings: source organism: Vaccinia virus Copenhagen
# HLA-B*18:01 = assay: as above; settings: source organism: Vaccinia virus Copenhagen
# HLA-A*26:03 [8] = assay: as above; settings: source organism: Vaccinia virus Copenhagen
# HLA-A*02:01 [9] = assay: as above
# HLA-B*08:01 = assay: as above; settings: source organism: Vaccinia virus Copenhagen
# HLA-B*15:01 [10] = assay: as above; settings: source organism: Vaccinia virus Copenhagen
# HLA-A*24:02 [11] = assay: as above
# HLA-C*07:02 = assay: IEDB peptide-MHC binding, purified MHC/direct/fluorescence; filed as Kd, often an IC50 or EC50 that approximates it; ≥ and ≤ were set here for values at or beyond the usual limits of such assays
# HLA-B*15:42 = assay: IEDB peptide-MHC binding, purified MHC/competitive/fluorescence; filed as Kd, often an IC50 or EC50 that approximates it; ≥ and ≤ were set here for values at or beyond the usual limits of such assays; settings: source organism: Mycobacterium tuberculosis C
# HLA-B*27:20 = assay: as above; settings: source organism: Mycobacterium tuberculosis C
# HLA-B*83:01 = assay: as above; settings: source organism: Mycobacterium tuberculosis C
# HLA-B*45:06 = assay: as above; settings: source organism: Mycobacterium tuberculosis C
# HLA-A*32:07 = assay: as above; settings: source organism: Mycobacterium tuberculosis C
# HLA-A*26:02 [12] = assay: IEDB peptide-MHC binding, purified MHC/direct/fluorescence; filed as Kd, often an IC50 or EC50 that approximates it; ≥ and ≤ were set here for values at or beyond the usual limits of such assays; settings: source organism: Bacillus cereus NVH0597-99
# HLA-B*15:17 [13] = assay: as above
# HLA-B*27:05 [14] = assay: as above; settings: source organism: Bacillus anthracis
# HLA-A*26:03 [15] = assay: as above
# HLA-B*08:03 = assay: as above
# HLA-B*08:02 = assay: as above; settings: source organism: Bacillus cereus NVH0597-99
# HLA-A*11:01 [16] = assay: IEDB peptide-MHC binding, purified MHC/competitive/fluorescence; filed as Kd, often an IC50 or EC50 that approximates it; ≥ and ≤ were set here for values at or beyond the usual limits of such assays; settings: source organism: Bacillus anthracis str. A0488
# HLA-A*30:01 = assay: as above
# HLA-A*31:01 [17] = assay: as above; settings: source organism: Bacillus anthracis str. A0488
# HLA-A*68:02 [18] = assay: IEDB peptide-MHC binding, purified MHC/direct/fluorescence; filed as Kd, often an IC50 or EC50 that approximates it; ≥ and ≤ were set here for values at or beyond the usual limits of such assays; settings: source organism: Cowpox virus
# HLA-B*15:09 = assay: as above; settings: source organism: Variola virus
# HLA-A*02:01 [19] = assay: as above; settings: source organism: Cowpox virus
# HLA-B*39:01 = assay: as above; settings: source organism: Cowpox virus
# HLA-B*38:01 = assay: as above; settings: source organism: Variola virus
# HLA-B*15:01 [20] = assay: as above; settings: source organism: Cowpox virus
# HLA-B*48:01 [21] = assay: IEDB peptide-MHC binding, purified MHC/competitive/fluorescence; filed as Kd, often an IC50 or EC50 that approximates it; ≥ and ≤ were set here for values at or beyond the usual limits of such assays; settings: source organism: Vaccinia virus Copenhagen
# HLA-B*27:05 [22] = assay: as above; settings: source organism: Vaccinia virus Copenhagen
# HLA-A*01:01 [23] = assay: as above; settings: source organism: Vaccinia virus Copenhagen
# HLA-B*35:01 = assay: IEDB peptide-MHC binding, purified MHC/competitive/fluorescence; ≥ and ≤ were set here for values at or beyond the usual limits of such assays; settings: source organism: Bos taurus
# HLA-A*24:02 [24] = assay: as above; settings: source organism: Bos taurus
# [25] = source organism: Camelpox virus M-96
# [26] = source organism: Vaccinia virus Copenhagen
# [27] = source organism: Bacillus anthracis str. A0488
# [28] = source organism: Bacillus anthracis
# [29] = source organism: Bacillus cereus NVH0597-99
# [30] = source organism: West Nile virus
sequence,measurement,setting,value
ALYSYASAK,Kd,HLA-A*11:01 [1],0.0117 µM
same,Kd,HLA-B*57:01; [25],≥ 20 µM
same,Kd,HLA-B*48:01 [2]; [25],≥ 20 µM
same,Kd,HLA-B*07:02; [25],≥ 20 µM
same,Kd,HLA-A*03:01,0.0395 µM
same,Kd,HLA-B*58:01; [25],≥ 20 µM
same,Kd,HLA-A*69:01; [25],≥ 20 µM
same,Kd,HLA-B*40:01; [25],≥ 20 µM
same,Kd,HLA-B*46:01; [25],≥ 20 µM
same,Kd,HLA-A*31:01 [3],0.106 µM
same,Kd,HLA-A*01:01 [4]; [25],≥ 20 µM
same,Kd,HLA-A*68:02 [5]; [26],≥ 20 µM
same,Kd,HLA-A*26:02 [6],≥ 20 µM
same,Kd,HLA-B*15:17 [7],≥ 20 µM
same,Kd,HLA-A*02:06,0.271 µM
same,Kd,HLA-B*18:01,≥ 20 µM
same,Kd,HLA-A*26:03 [8],0.494 µM
same,Kd,HLA-A*02:01 [9]; [26],0.0563 µM
same,Kd,HLA-B*08:01,≥ 20 µM
same,Kd,HLA-B*15:01 [10],≥ 20 µM
WYAPVALLF,Kd,HLA-A*24:02 [11]; [27],≤ 0.0001 µM
RARRHLAAL,Kd,HLA-C*07:02; source organism: Mycobacterium tuberculosis C,1.34 µM
same,Kd,HLA-B*15:42,≥ 5 µM
same,Kd,HLA-B*27:20,0.0074 µM
same,Kd,HLA-B*83:01,5 µM
same,Kd,HLA-B*45:06,≥ 5 µM
same,Kd,HLA-A*32:07,0.114 µM
REFEAQNVP,Kd,HLA-A*26:02 [12],≥ 20 µM
same,Kd,HLA-B*15:17 [13]; [28],≥ 20 µM
same,Kd,HLA-B*57:01; [28],≥ 20 µM
same,Kd,HLA-B*48:01 [2]; [28],≥ 20 µM
same,Kd,HLA-B*07:02; [28],≥ 20 µM
same,Kd,HLA-B*58:01; [28],≥ 20 µM
same,Kd,HLA-B*27:05 [14],≥ 20 µM
same,Kd,HLA-A*69:01; [28],≥ 20 µM
same,Kd,HLA-A*26:03 [15]; [29],≥ 20 µM
same,Kd,HLA-B*08:03; [29],≥ 20 µM
same,Kd,HLA-B*40:01; [28],0.294 µM
same,Kd,HLA-B*08:02,≥ 20 µM
same,Kd,HLA-A*01:01 [4]; [28],≥ 20 µM
same,Kd,HLA-A*68:02 [5]; [27],2.19 µM
same,Kd,HLA-A*11:01 [16],0.497 µM
same,Kd,HLA-A*02:01 [9]; [27],0.145 µM
same,Kd,HLA-A*30:01; [27],0.521 µM
same,Kd,HLA-A*31:01 [17],≥ 20 µM
SYHDRRWCF,Kd,HLA-C*07:02; [30],0.017 µM
same,Kd,HLA-A*24:02 [11]; [30],0.0101 µM
RHDITGFIL,Kd,HLA-A*68:02 [18],≥ 20 µM
same,Kd,HLA-B*15:17 [13]; source organism: Cowpox virus,≥ 20 µM
same,Kd,HLA-B*57:01; source organism: Cowpox virus,≥ 20 µM
same,Kd,HLA-B*07:02; source organism: Cowpox virus,≥ 20 µM
same,Kd,HLA-B*15:09,2.78 µM
same,Kd,HLA-B*58:01; source organism: Cowpox virus,≥ 20 µM
same,Kd,HLA-A*69:01; source organism: Cowpox virus,≥ 20 µM
same,Kd,HLA-A*26:03 [15]; source organism: Variola virus,≥ 20 µM
same,Kd,HLA-A*02:01 [19],≥ 20 µM
same,Kd,HLA-B*39:01,0.0235 µM
same,Kd,HLA-B*38:01,0.033 µM
same,Kd,HLA-B*08:03; source organism: Variola virus,≥ 20 µM
same,Kd,HLA-B*40:01; source organism: Cowpox virus,0.513 µM
same,Kd,HLA-B*46:01; source organism: Cowpox virus,≥ 20 µM
same,Kd,HLA-B*15:01 [20],≥ 20 µM
same,Kd,HLA-B*48:01 [21],0.298 µM
same,Kd,HLA-B*18:01,≥ 20 µM
same,Kd,HLA-B*27:05 [22],≥ 20 µM
same,Kd,HLA-A*30:01; [26],≥ 20 µM
same,Kd,HLA-A*01:01 [23],≥ 20 µM
YMMDDLEL,IC50,HLA-B*35:01,≥ 20 µM
same,IC50,HLA-A*24:02 [24],1.06 µM
